# T1: Human IL2Rγ extracellular domain expressed with a C-terminal mouse IgG2a Fc tag (human)
# T1 construct: whole entry is the Fc-fused construct; also called hIL-2Rg-mFc
# T1 chain: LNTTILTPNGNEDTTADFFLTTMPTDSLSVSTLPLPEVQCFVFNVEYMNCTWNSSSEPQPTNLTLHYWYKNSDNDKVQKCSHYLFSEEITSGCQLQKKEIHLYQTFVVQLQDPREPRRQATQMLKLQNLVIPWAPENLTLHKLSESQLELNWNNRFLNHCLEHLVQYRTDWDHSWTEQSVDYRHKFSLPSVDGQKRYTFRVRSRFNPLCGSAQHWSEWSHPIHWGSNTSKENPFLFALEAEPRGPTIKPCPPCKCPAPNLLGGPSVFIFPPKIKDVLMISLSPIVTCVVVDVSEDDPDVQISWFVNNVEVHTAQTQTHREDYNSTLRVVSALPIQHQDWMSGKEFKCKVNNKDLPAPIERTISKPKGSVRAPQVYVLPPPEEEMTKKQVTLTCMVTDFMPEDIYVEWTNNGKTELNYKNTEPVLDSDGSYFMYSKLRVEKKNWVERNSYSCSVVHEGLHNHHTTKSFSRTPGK
# T2: Mouse IL2Rγ extracellular domain expressed with a C-terminal myc-myc-hexahistidine tag (mouse)
# T2 construct: whole entry is the tagged construct; also called mIL-2Rg-MMH
# T2 chain: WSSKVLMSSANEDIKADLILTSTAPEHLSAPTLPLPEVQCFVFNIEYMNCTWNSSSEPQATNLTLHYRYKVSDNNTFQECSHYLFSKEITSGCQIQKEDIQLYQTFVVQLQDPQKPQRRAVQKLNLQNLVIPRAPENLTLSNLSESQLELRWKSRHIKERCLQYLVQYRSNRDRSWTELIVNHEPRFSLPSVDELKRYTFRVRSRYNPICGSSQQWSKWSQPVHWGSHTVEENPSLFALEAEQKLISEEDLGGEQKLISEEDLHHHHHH
# T3: Rat IL2Rγ extracellular domain expressed with a C-terminal myc-myc-hexahistidine tag (rat)
# T3 construct: whole entry is the tagged construct; also called rIL-2Rg-MMH; rat IL-2Rg-MMH
# T3 chain: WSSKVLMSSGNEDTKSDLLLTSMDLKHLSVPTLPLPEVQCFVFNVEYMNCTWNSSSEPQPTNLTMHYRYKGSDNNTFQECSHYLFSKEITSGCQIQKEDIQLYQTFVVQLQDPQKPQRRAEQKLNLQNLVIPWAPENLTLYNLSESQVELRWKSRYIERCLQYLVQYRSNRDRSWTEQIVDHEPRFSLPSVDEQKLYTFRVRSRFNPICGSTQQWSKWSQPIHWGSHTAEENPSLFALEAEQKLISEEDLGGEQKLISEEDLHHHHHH
# T4: Macaca fascicularis IL2Rγ extracellular domain expressed with a C-terminal myc-myc-hexahistidine tag (Macaca fascicularis)
# T4 construct: whole entry is the tagged construct; also called mfIL-2Rg-MMH
# T4 chain: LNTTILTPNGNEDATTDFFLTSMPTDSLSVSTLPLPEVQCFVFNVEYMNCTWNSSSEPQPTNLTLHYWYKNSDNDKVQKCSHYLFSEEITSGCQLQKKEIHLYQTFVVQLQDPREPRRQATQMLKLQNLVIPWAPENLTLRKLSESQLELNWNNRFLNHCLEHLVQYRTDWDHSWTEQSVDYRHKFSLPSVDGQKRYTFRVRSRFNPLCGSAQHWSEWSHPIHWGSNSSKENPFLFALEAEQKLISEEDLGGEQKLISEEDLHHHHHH
# Assays:
# [1] = target: T1, Human IL2Rγ extracellular domain …; test: SPR Biacore 4000, anti-hFc-captured mAb, 25 C
# Experimental: (§1) Equilibrium dissociation constants (KD values) for IL-2Rγ binding to purified anti-IL2Rγ monoclonal antibodies were determined using a Biacore 4000 instrument equipped with a real-time surface plasmon resonance biosensor. All binding studies were performed in 10 mM HEPES, 150 mM NaCl, 3 mM EDTA, and 0.05% v/v Surfactant Tween-20, pH 7.4 (HBS-ET) running buffer at 25° C. and 37° C. The Biacore sensor surface was first derivatized by amine coupling with a monoclonal mouse anti-human Fc antibody (GE, # BR-1008-39) to capture anti-IL2Rγ monoclonal antibodies.
# (§2) The dissociation of monoclonal antibody bound IL2Rγ reagents were monitored for 8-10 minutes in HBS-ET running buffer. Kinetic association (kₐ) and dissociation (kd) rate constants were determined by fitting the real-time sensorgrams to a 1:1 binding model using Scrubber 2.0c curve fitting software. Binding dissociation equilibrium constants (KD) and dissociative half-lives (t_{1/2}) were calculated from the kinetic rate constants as: […]
# [2] = target: T2, Mouse IL2Rγ extracellular domain …; test: SPR Biacore 4000, anti-hFc-captured mAb, 25 C
# Experimental: as §1, §2
# [3] = target: T3, Rat IL2Rγ extracellular domain …; test: SPR Biacore 4000, anti-hFc-captured mAb, 25 C
# Experimental: as §1, §2
# [4] = target: T4, Macaca fascicularis IL2Rγ extracellular …; test: SPR Biacore 4000, anti-hFc-captured mAb, 37 C
# Experimental: as §1, §2
# [5] = target: T1, Human IL2Rγ extracellular domain …; test: SPR Biacore 4000, anti-hFc-captured mAb, 37 C
# Experimental: as §1, §2
# [6] = target: T2, Mouse IL2Rγ extracellular domain …; test: SPR Biacore 4000, anti-hFc-captured mAb, 37 C
# Experimental: as §1, §2
# [7] = target: T3, Rat IL2Rγ extracellular domain …; test: SPR Biacore 4000, anti-hFc-captured mAb, 37 C
# Experimental: as §1, §2
Binder,50 nM Ag Bound [1],Kd [1],koff [1],kon [1],t1/2 [1],100 nM Ag Bound [2],100 nM Ag Bound [3],binding result [3],100 nM Ag Bound [4],Kd [4],koff [4],kon [4],t1/2 [4],50 nM Ag Bound [5],Kd [5],koff [5],kon [5],t1/2 [5],100 nM Ag Bound [6],100 nM Ag Bound [7],also measured
"H4H12924P2 (antibody, human IgG4 S228P, kappa, V domains shown, fully human anti-IL2Rgamma mAb, human IgG4 Fc) VH: EVQLVESGGGLVQPGRSLRLSCAASGFTLEDYAMHWVRQAPGKGLEWVSGISWNRGSTGYADSVKGRFTISRDNAKNSLYLQMTSLRAEDTALYYCAKGFYSMDVWGQGTTVTVSS VL: not shown",28 RU,5.66 nM,0.000411 s⁻¹,72600 M⁻¹ s⁻¹,28 min,2 RU,3 RU,no binding (tested: 100 nM),24 RU,20.7 nM,0.0137 s⁻¹,662000 M⁻¹ s⁻¹,0.8 min,13 RU,12.2 nM,0.000183 s⁻¹,15000 M⁻¹ s⁻¹,63 min,-1 RU,3 RU,–
"H4H13541P (antibody, human IgG4 S228P, kappa, V domains shown, fully human anti-IL2Rgamma mAb, human IgG4 Fc) VH: EVQLVESGGGVVRPGGSLRLSCAASGFIFDDYDMSWVRQPPGRGLEWVSGIDWFGGTRGYADSMKGRFTISRDNAKNSLYLQMNSLRVEDTAFYYCARGGAIVGAVTPFDYWGQGTLVTVSS VL: DIQMTQSPSSLSASVGNRVTLSCRASQSINTYLSWYQQRPGKAPKLLIYAASSLQSGVPSRFSGSGAGTDFTLTISSLQPEDFATYYCQQSYSAPLTFGGGTKVEIKR",24 RU,1.8 nM,8.84e-05 s⁻¹,49200 M⁻¹ s⁻¹,131 min,5 RU,4 RU,no binding (tested: 100 nM),111 RU,7.1 nM,0.000755 s⁻¹,106000 M⁻¹ s⁻¹,15 min,42 RU,2.18 nM,0.000122 s⁻¹,56000 M⁻¹ s⁻¹,94 min,4 RU,5 RU,binding result [2]: no binding (tested: 100 nM)
"H4H13544P2 (antibody, human IgG4 S228P, kappa, V domains shown, fully human anti-IL2Rgamma mAb, human IgG4 Fc) VH: QLQLQESGPGLVKPSETLSLTCTVSGGSISIKNYYWGWIRQPPGKGLEWIGSIYYSGTTYYNPSLKSRVTISVDTSKNQFSLKLSSVTAADTAVYHCARHGYSYGHGWFDPWGQGTLVTVSS VL: not shown",63 RU,2.21 nM,0.000246 s⁻¹,111000 M⁻¹ s⁻¹,47 min,3 RU,3 RU,no binding (tested: 100 nM),60 RU,52.1 nM,0.00612 s⁻¹,118000 M⁻¹ s⁻¹,1.9 min,88 RU,6.33 nM,0.000801 s⁻¹,126000 M⁻¹ s⁻¹,14 min,4 RU,4 RU,binding result [2]: no binding (tested: 100 nM)
"H4H13545P2 (antibody, human IgG4 S228P, kappa, V domains shown, fully human anti-IL2Rgamma mAb, human IgG4 Fc) VH: QVQLQQSGPGLVKPSQTLSLTCDISGDSVSSNIATWNWIRQSPSRGLEWLGRTYYRSKWYKDYAVSVKSRITINPDTSKNQFSLQVNSVTPEDTAVYYCARMTGPRYYFEYWGQGTLVTVSS VL: not shown",64 RU,12 nM,0.00211 s⁻¹,175000 M⁻¹ s⁻¹,5 min,4 RU,4 RU,no binding (tested: 100 nM),21 RU,88.6 nM,0.0129 s⁻¹,146000 M⁻¹ s⁻¹,0.9 min,59 RU,30 nM,0.00737 s⁻¹,246000 M⁻¹ s⁻¹,1.6 min,2 RU,3 RU,binding result [2]: no binding (tested: 100 nM)

# Binders with a lower Kd [1], results first:
50 nM Ag Bound [1],Kd [1],koff [1],kon [1],t1/2 [1],100 nM Ag Bound [2],100 nM Ag Bound [3],binding result [3],100 nM Ag Bound [4],Kd [4],koff [4],kon [4],t1/2 [4],50 nM Ag Bound [5],Kd [5],koff [5],kon [5],t1/2 [5],100 nM Ag Bound [6],100 nM Ag Bound [7],Binder,also measured
12 RU,1.3 nM,5.34e-05 s⁻¹,41200 M⁻¹ s⁻¹,216 min,1 RU,1 RU,no binding (tested: 100 nM),20 RU,37.3 nM,0.00296 s⁻¹,79300 M⁻¹ s⁻¹,4 min,9 RU,2.53 nM,0.000185 s⁻¹,73200 M⁻¹ s⁻¹,62 min,0 RU,3 RU,"H4H12913P2 (antibody, human IgG4 S228P, kappa, V domains shown, fully human anti-IL2Rgamma mAb, human IgG4 Fc) VH: EVQLVESGGGVVRPGGSLRLSCAASGFTFDDYGMSWVRQAPGKGLEWISSINRNGGSADYADSVKGRFTISRDNAKNSLFLQMSSLRAEDTALYHCASGEFRFDYWGQGTLVTVSS VL: not shown",binding result [2]: no binding (tested: 100 nM)
23 RU,1.26 nM,6.7e-05 s⁻¹,53400 M⁻¹ s⁻¹,172 min,2 RU,3 RU,no binding (tested: 100 nM),47 RU,17.7 nM,0.000846 s⁻¹,47800 M⁻¹ s⁻¹,14 min,19 RU,12.8 nM,9.09e-05 s⁻¹,7080 M⁻¹ s⁻¹,127 min,-2 RU,4 RU,"H4H12886P (antibody, human IgG4 S228P, kappa, V domains shown, fully human anti-IL2Rgamma mAb, human IgG4 Fc) VH: EVQLVESGGGLVKPGGSLRLSCAASGFTFSTAWMSWVRQSPGRGLEWVGRMKSKTDGGTTFYAAPVKGRFTISRDDSKNTLYLQMNSLKTEDTAVYYCTTGLVPAFYKYYGVDVWGQGTTVTVSS VL: DIQMTQSPSSLSASVGDRITITCQASQDITNYLNWYQQKPGKAPNLLIYDASNLVTGVPSRFSGSGSGTDFTFTILSLQPEDIATYYCQQYDSLLTFGPGTKVDIKR",–
38 RU,0.996 nM,0.000116 s⁻¹,117000 M⁻¹ s⁻¹,99 min,4 RU,3 RU,no binding (tested: 100 nM),115 RU,5.5 nM,0.000932 s⁻¹,169000 M⁻¹ s⁻¹,12 min,70 RU,1.29 nM,0.000187 s⁻¹,144000 M⁻¹ s⁻¹,62 min,5 RU,5 RU,"H4H13538P (antibody, human IgG4 S228P, kappa, V domains shown, fully human anti-IL2Rgamma mAb, human IgG4 Fc) VH: EVQLVESGGGLVQPGGSLGLSCAASGFTFSNYAMSWVRQAPGKGLEWVSAVSGGGGGTYYADSVKGRFTISRDNSKNTVLLQMNSLRAEDTAVYYCARGRTGGLDYWGPGTLVTVSS VL: DVVMTQSPLSLPVIFGQPASISCRSSQSLVDSDGNTYLNWLQQRPGQSPRRLIYEVSNRDSGVPDRFSGSGSGTDFTLTISRVEAEDVGIYYCMQGTRWPPTFGGGTKVEIKR",binding result [2]: no binding (tested: 100 nM)
